Source: article PMC6584995, “Disruption of an amino acid transporter LHT1 leads to growth inhibition and low yields in rice” (BMC Plant Biology, 2019)

Substrate: NC(=O)C[C@H](N)C(=O)O
Test: two-electrode voltage clamp in Xenopus oocytes, Asn-induced currents
Type: cell-based, Oryza sativa
Conditions: pH 5.4 (Tris/MES), currents at -140 mV, holding potential -40 mV, transport

B1: OsLHT1 (Oryza sativa Japonica Group) (protein)
chain: MGTQVADNYPPAKDGRSAQEKAIDDWLPITSSRNAKWWYSAFHNVTAMVGAGVLSLPYAMSELGWGPGIAVLILSWIITLYTLWQMVEMHEMVPGKRFDRYHELGQHAFGEKLGLWIVVPQQLVVEVGVNIVYMVTGGKSLKKFHDVLCEGHGCKNIKLTYFIMIFASVHFVLSQLPNFNSISGVSLAAAVMSLSYSTIAWGASVDKGKVADVDYHLRATTSTGKVFGFFSALGDVAFAYAGHNVVLEIQATIPSTPEKPSKKPMWKGVVVAYIIVALCYFPVALVGYWAFGNHVDDNILITLSRPKWLIALANMMVVIHVIGSYQIYAMPVFDMIETVLVKKLRFPPGLTLRLIARTLYVAFTMFIAITFPFFGGLLGFFGGFAFAPTTYFLPCIMWLAIYKPRRFSLSWFTNWICIILGVMLMILSPIGGLRQIIIDAKTYKFYS
Protein B1 has a Km of 583 ± 51 µM.
